# Measured values from paper PMC10663500, “High-throughput analysis system of interaction kinetics for data-driven antibody design” (Scientific Reports, 2023).
# What was measured:
# [1] = target: T1, mouse programmed cell death protein 1 Fc fusion protein (mPD-1-Fc), mPD-1 C60S (aa 25-167) (Mus musculus, UniProt Q02242, stabilised); assay: SPR; Carterra LSA; Fab from the ammonium sulfate precipitate of the culture supernatant immobilised on a NiHC200M chip; hPD-1 (1-1024 nM) or mPD-1-Fc (4-1024 nM) as analyte, fourfold dilution series, no regeneration; HBS-EP pH 7.4, 25 °C; medians over the spots of a construct, KD = koff/kon; conditions: one partner purified
# T1 construct: not cleaved; source: Expi293F, purified (Protein A, SEC; dimeric fraction); not shown: Fc (human), C-terminal, kept
# Method in brief: (§1)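 Human PD-1 (1–1024 nM) or mouse PD-1-Fc (4–1024 nM), in fourfold series, was flowed without regeneration over Fabs captured in duplicate on a NiHC200M chip (Carterra LSA, 25 °C), using 10 min association and 5 min dissociation. The Fabs had been recovered from Brevibacillus culture supernatants by ammonium sulfate precipitation and redissolved in HBS-EP. For binding constants, KD was defined as koff/kon from per-construct medians, with rates fitted by the kdka model under slow- or fast-dissociation settings (best fit) and unconfirmed binders set to kon 10^3 […] and koff 10^−2 s^−1.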
# [2] = target: T2, human programmed cell death protein 1 (hPD-1) C93S (aa 24-167) (Homo sapiens, UniProt Q15116, C93S); assay: as above; conditions: one partner purified
# T2 construct: made as a fusion with a TEV site and human Fc; the Fc was cut off with TEV protease; source: Expi293F, purified (Protein A, TEV cleavage of Fc, SEC; monomer fractions); not shown: Fc (human), C-terminal, cleaved
# T2 sequence (Q15116 24-167 C93S): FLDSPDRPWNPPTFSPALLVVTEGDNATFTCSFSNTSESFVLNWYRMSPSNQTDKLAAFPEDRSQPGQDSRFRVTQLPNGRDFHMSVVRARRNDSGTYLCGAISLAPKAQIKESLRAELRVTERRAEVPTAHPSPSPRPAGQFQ
# Method in brief: as §1
Binder,Kd [1],koff [1],kon [1],Kd [2],koff [2],kon [2]
"toripalimab Fab H.Y32A (Fab, V domains shown, heavy chain of Sm3 with this change; numbers count from the chain's first residue; as the light chain of Sm3; source: Brevibacillus, culture supernatant (ammonium sulfate precipitate); not shown: 6xHis, C-terminal, kept; 6xHN, C-terminal, kept) VH: QGQLVQSGAEVKKPGASVKVSCKASGYTFTDAEMHWVRQAPIHGLEWIGVIESETGGTAYNQKFKGRVTITADKSTSTAYMELSSLRSEDTAVYYCAREGITTVATTYYWYFDVWGQGTTVTVSS VL: DVVMTQSPLSLPVTLGQPASISCRSSQSIVHSNGNTYLEWYLQKPGQSPQLLIYKVSNRFSGVPDRFSGSGSGTDFTLKISRVEAEDVGVYYCFQGSHVPLTFGQGTKLEIK",1310 nM,0.0613 s⁻¹,46900 M⁻¹ s⁻¹,4.68 nM,7.41e-05 s⁻¹,15800 M⁻¹ s⁻¹
"toripalimab Fab H.Q62A (Fab, V domains shown, heavy chain of Sm3 with this change; numbers count from the chain's first residue; as the light chain of Sm3; source: Brevibacillus, culture supernatant (ammonium sulfate precipitate); not shown: 6xHis, C-terminal, kept; 6xHN, C-terminal, kept) VH: QGQLVQSGAEVKKPGASVKVSCKASGYTFTDYEMHWVRQAPIHGLEWIGVIESETGGTAYNAKFKGRVTITADKSTSTAYMELSSLRSEDTAVYYCAREGITTVATTYYWYFDVWGQGTTVTVSS VL: DVVMTQSPLSLPVTLGQPASISCRSSQSIVHSNGNTYLEWYLQKPGQSPQLLIYKVSNRFSGVPDRFSGSGSGTDFTLKISRVEAEDVGVYYCFQGSHVPLTFGQGTKLEIK",153 nM,0.00564 s⁻¹,37000 M⁻¹ s⁻¹,< 1.29 nM,< 1e-05 s⁻¹,7730 M⁻¹ s⁻¹
"toripalimab Fab H.N61Y (Fab, V domains shown, heavy chain of Sm3 with this change; numbers count from the chain's first residue; as the light chain of Sm3; source: Brevibacillus, culture supernatant (ammonium sulfate precipitate); not shown: 6xHis, C-terminal, kept; 6xHN, C-terminal, kept) VH: QGQLVQSGAEVKKPGASVKVSCKASGYTFTDYEMHWVRQAPIHGLEWIGVIESETGGTAYYQKFKGRVTITADKSTSTAYMELSSLRSEDTAVYYCAREGITTVATTYYWYFDVWGQGTTVTVSS VL: DVVMTQSPLSLPVTLGQPASISCRSSQSIVHSNGNTYLEWYLQKPGQSPQLLIYKVSNRFSGVPDRFSGSGSGTDFTLKISRVEAEDVGVYYCFQGSHVPLTFGQGTKLEIK",147 nM,0.00562 s⁻¹,38100 M⁻¹ s⁻¹,< 0.156 nM,< 1e-05 s⁻¹,64200 M⁻¹ s⁻¹
"toripalimab Fab H.G57A (Fab, V domains shown, heavy chain of Sm3 with this change; numbers count from the chain's first residue; as the light chain of Sm3; source: Brevibacillus, culture supernatant (ammonium sulfate precipitate); not shown: 6xHis, C-terminal, kept; 6xHN, C-terminal, kept) VH: QGQLVQSGAEVKKPGASVKVSCKASGYTFTDYEMHWVRQAPIHGLEWIGVIESETGATAYNQKFKGRVTITADKSTSTAYMELSSLRSEDTAVYYCAREGITTVATTYYWYFDVWGQGTTVTVSS VL: DVVMTQSPLSLPVTLGQPASISCRSSQSIVHSNGNTYLEWYLQKPGQSPQLLIYKVSNRFSGVPDRFSGSGSGTDFTLKISRVEAEDVGVYYCFQGSHVPLTFGQGTKLEIK",125 nM,0.00625 s⁻¹,50100 M⁻¹ s⁻¹,0.598 nM,1.47e-05 s⁻¹,24500 M⁻¹ s⁻¹
"toripalimab Fab H.K63A (Fab, V domains shown, heavy chain of Sm3 with this change; numbers count from the chain's first residue; as the light chain of Sm3; source: Brevibacillus, culture supernatant (ammonium sulfate precipitate); not shown: 6xHis, C-terminal, kept; 6xHN, C-terminal, kept) VH: QGQLVQSGAEVKKPGASVKVSCKASGYTFTDYEMHWVRQAPIHGLEWIGVIESETGGTAYNQAFKGRVTITADKSTSTAYMELSSLRSEDTAVYYCAREGITTVATTYYWYFDVWGQGTTVTVSS VL: DVVMTQSPLSLPVTLGQPASISCRSSQSIVHSNGNTYLEWYLQKPGQSPQLLIYKVSNRFSGVPDRFSGSGSGTDFTLKISRVEAEDVGVYYCFQGSHVPLTFGQGTKLEIK",71.3 nM,0.00524 s⁻¹,73600 M⁻¹ s⁻¹,< 0.248 nM,< 1e-05 s⁻¹,40300 M⁻¹ s⁻¹
"toripalimab Fab H.A59Y (Fab, V domains shown, heavy chain of Sm3 with this change; numbers count from the chain's first residue; as the light chain of Sm3; source: Brevibacillus, culture supernatant (ammonium sulfate precipitate); not shown: 6xHis, C-terminal, kept; 6xHN, C-terminal, kept) VH: QGQLVQSGAEVKKPGASVKVSCKASGYTFTDYEMHWVRQAPIHGLEWIGVIESETGGTYYNQKFKGRVTITADKSTSTAYMELSSLRSEDTAVYYCAREGITTVATTYYWYFDVWGQGTTVTVSS VL: DVVMTQSPLSLPVTLGQPASISCRSSQSIVHSNGNTYLEWYLQKPGQSPQLLIYKVSNRFSGVPDRFSGSGSGTDFTLKISRVEAEDVGVYYCFQGSHVPLTFGQGTKLEIK",345 nM,0.0135 s⁻¹,39200 M⁻¹ s⁻¹,2.18 nM,4.81e-05 s⁻¹,22100 M⁻¹ s⁻¹
"toripalimab Fab H.Y60A (Fab, V domains shown, heavy chain of Sm3 with this change; numbers count from the chain's first residue; as the light chain of Sm3; source: Brevibacillus, culture supernatant (ammonium sulfate precipitate); not shown: 6xHis, C-terminal, kept; 6xHN, C-terminal, kept) VH: QGQLVQSGAEVKKPGASVKVSCKASGYTFTDYEMHWVRQAPIHGLEWIGVIESETGGTAANQKFKGRVTITADKSTSTAYMELSSLRSEDTAVYYCAREGITTVATTYYWYFDVWGQGTTVTVSS VL: DVVMTQSPLSLPVTLGQPASISCRSSQSIVHSNGNTYLEWYLQKPGQSPQLLIYKVSNRFSGVPDRFSGSGSGTDFTLKISRVEAEDVGVYYCFQGSHVPLTFGQGTKLEIK",88.2 nM,0.00422 s⁻¹,47900 M⁻¹ s⁻¹,< 0.309 nM,< 1e-05 s⁻¹,32300 M⁻¹ s⁻¹
"toripalimab Fab H.T58A (Fab, V domains shown, heavy chain of Sm3 with this change; numbers count from the chain's first residue; as the light chain of Sm3; source: Brevibacillus, culture supernatant (ammonium sulfate precipitate); not shown: 6xHis, C-terminal, kept; 6xHN, C-terminal, kept) VH: QGQLVQSGAEVKKPGASVKVSCKASGYTFTDYEMHWVRQAPIHGLEWIGVIESETGGAAYNQKFKGRVTITADKSTSTAYMELSSLRSEDTAVYYCAREGITTVATTYYWYFDVWGQGTTVTVSS VL: DVVMTQSPLSLPVTLGQPASISCRSSQSIVHSNGNTYLEWYLQKPGQSPQLLIYKVSNRFSGVPDRFSGSGSGTDFTLKISRVEAEDVGVYYCFQGSHVPLTFGQGTKLEIK",169 nM,0.0066 s⁻¹,39000 M⁻¹ s⁻¹,< 0.662 nM,< 1e-05 s⁻¹,15100 M⁻¹ s⁻¹
